Values quoted from earlier work, collected in paper PMC4741438, “Targeting the SIN3A-PF1 interaction inhibits epithelial to mesenchymal transition and maintenance of a stem cell phenotype in triple negative breast cancer” (Oncotarget, 2015).

Test system: PAH2
Details: in comparison to MAD
Source text: The PAH2 domain of SIN3 mediates interactions with a restricted subset of factors containing a conserved SIN3 interaction domain (SID) with homology to amino acids 5-24 of the prototypic PAH2-binding protein, the transcriptional repressor MAD [19-22]. […] Therefore, the use of small molecules based on in silico modeling of the MAD-SID sequence to prevent recruitment of the PF1-containing complexes represents a new and potentially clinically effective therapeutic strategy. While it cannot be ruled out that the effects of SID treatment act through inhibiting the interaction of additional PAH2-binding proteins with SIN3, the finding that PF1 kn ...

B1: PF1: plant homeodomain (PHD)-containing protein PF1 (PHF12) (protein)
chain: MWEKMETKTIVYDLDTSGGLMEQIQALLAPPKTDEAEKRSRKPEKEPRRSGRATNHDSCDSCKEGGDLLCCDHCPAAFHLQCCNPPLSEEMLPPGEWMCHRCTVRRKKREQKKELGHVNGLVDKSGKRTTSPSSDTDLLDRSASKTELKAIAHARILERRASRPGTPTSSASTETPTSEQNDVDEDIIDVDEEPVAAEPDYVQPQLRRPFELLIAAAMERNPTQFQLPNELTCTTALPGSSKRRRKEETTGKNVKKTQHELDHNGLVPLPVKVCFTCNRSCRVAPLIQCDYCPLLFHMDCLEPPLTAMPLGRWMCPNHIEHVVLNQKNMTLSNRCQVFDRFQDTVSQHVVKVDFLNRIHKKHPPNRRVLQSVKRRSLKVPDAIKSQYQFPPPLIAPAAIRDGELICNGIPEESQMHLLNSEHLATQAEQQEWLCSVVALQCSILKHLSAKQMPSHWDSEQTEKADIKPVIVTDSSVTTSLQTADKTPTPSHYPLSCPSGISTQNSLSCSPPHQSPALEDIGCSSCAEKSKKTPCGTANGPVNTEVKANGPHLYSSPTDSTDPRRLPGANTPLPGLSHRQGWPRPLTPPAAGGLQNHTVGIIVKTENATGPSSCPQRSLVPVPSLPPSIPSSCASIENTSTLQRKTVQSQIGPPLTDSRPLGSPPNATRVLTPPQAAGDGILATTANQRFSSPAPSSDGKVSPGTLSIGSALTVPSFPANSTAMVDLTNSLRAFMDVNGEIEINMLDEKLIKFLALQRIHQLFPSRVQPSPGSVGTHQLASGGHHIEVQRKEVQARAVFYPLLGLGGAVNMCYRTLYIGTGADMDVCLTNYGHCNYVSGKHACIFYDENTKHYELLNYSEHGTTVDNVLYSCDFSEKTPPTPPSSIVAKVQSVIRRRRHQKQDEEPSEEAAMMSSQAQGPQRRPCNCKASSSSLIGGSGAGWEGTALLHHGSYIKLGCLQFVFSITEFATKQPKGDASLLQDGVLAEKLSLKPHQGPVLRSNSVP
For B1, the “affinity for PAH2, fold lower than MAD” value is listed as 10 fold.
